In paper PMC10083601 (Proceedings of the National Academy of Sciences of the …, 2023):

Molecular target: T1, N-terminally truncated tyrosine phosphorylated STAT1 (residues 136 to 750, N-terminally tagged with GB1) (UniProt P42224 136-750)
T1 sequence: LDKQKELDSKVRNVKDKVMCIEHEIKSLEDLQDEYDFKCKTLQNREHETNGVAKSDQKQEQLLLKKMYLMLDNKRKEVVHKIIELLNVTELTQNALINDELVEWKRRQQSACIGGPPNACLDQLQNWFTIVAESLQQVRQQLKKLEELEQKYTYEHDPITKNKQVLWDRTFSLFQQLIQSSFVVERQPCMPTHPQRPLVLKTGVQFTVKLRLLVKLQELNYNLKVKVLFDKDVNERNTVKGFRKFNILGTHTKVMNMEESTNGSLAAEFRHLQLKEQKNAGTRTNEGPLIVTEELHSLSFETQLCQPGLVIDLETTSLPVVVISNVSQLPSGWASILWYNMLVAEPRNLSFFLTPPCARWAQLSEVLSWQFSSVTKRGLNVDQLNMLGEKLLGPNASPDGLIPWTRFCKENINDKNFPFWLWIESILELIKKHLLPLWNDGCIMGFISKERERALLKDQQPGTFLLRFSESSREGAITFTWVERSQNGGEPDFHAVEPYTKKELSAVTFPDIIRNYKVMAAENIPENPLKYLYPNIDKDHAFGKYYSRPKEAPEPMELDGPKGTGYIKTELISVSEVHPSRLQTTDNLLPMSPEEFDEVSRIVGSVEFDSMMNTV
Test: ITC

B1: Rabies virus (strain Nishigahara) P3 protein (natural protein)
chain: MSRLHLDDGKLPDLGRMSKAGEGRHQEDFQMDEGEDPSLLFQSYLDNVGVQIVRQMRSGERFLKIWSQTVEEIISYVTVNFPNPSGRSSEDKSTQTTSQEPKKETTSTPSQRKSQSLKSRTMAQTASGPPSLEWSATNEEDDLSVEAEIAHQIAESFSKKYKFPSRSSGIFLYNFEQLKMNLDDIVKEAKNVPGVTRLAHDGSKLPLRCVLGWVALANSKKFQLLVEANKLNKIMQDDLNRYASC
**Q.** For B1, which Kd is on record?
**A.** 0.8 µM
